The experiment concerns the target calmodulin (Homo sapiens (Human)). The experiment in a line: not stated (off-rate from calmodulin).

No end group written: not given here.

The koff is a measure of how fast the partners let go of each other.

B1: TAG 4 peptide, fluoresceinated (peptide)
peptide: CEIKRAAAINLKALAALAKKILIK
modifications: also: fluorescein label, site not given here
As to B1, the koff was below 0.0001 s⁻¹.

B2: TAG 2 peptide, fluoresceinated (peptide)
peptide: CEIKRAAAINLKALAALAKKIL
modifications: also: fluorescein label, site not given here
In the case of B2, the koff was below 0.0001 s⁻¹.

The values above are taken from patent publication US6117976, “Manufacture and use of polypeptides tagged using binding molecules” (Medical Research Council, dated 2000).
